The values below come from publication PMC2535662, “Identification of COUP-TFII Orphan Nuclear Receptor as a Retinoic Acid–Activated Receptor” (PLoS Biology, 2008).

For one data set, the target named is T1, COUP-TFII (Homo sapiens, UniProt P24468, C174S).
T1 construct: gene NR2F2; LBD (residues 173–414 with C174S mutation), 6X His-GST fusion protein
T1 sequence (P24468 173-414 C174S): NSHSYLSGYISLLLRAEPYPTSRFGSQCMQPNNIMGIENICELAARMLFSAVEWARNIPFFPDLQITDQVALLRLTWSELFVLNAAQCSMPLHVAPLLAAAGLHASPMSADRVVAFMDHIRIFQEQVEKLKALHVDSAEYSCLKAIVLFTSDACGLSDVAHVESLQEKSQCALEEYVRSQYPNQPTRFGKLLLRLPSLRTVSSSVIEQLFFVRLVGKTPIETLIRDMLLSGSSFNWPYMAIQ
Kind of data set: AlphaScreen ligand-dependent coactivator peptide recruitment to purified LBD; also NGFI-A luciferase reporter in COS-7 cells. In kind it is binding. A general note: Bead proximity is the source of the signal in Alpha formats.

The target of data set [1] is full-length COUP-TFII (mouse expression plasmid) (mouse) (UniProt P43135).
Data set [2] concerns the target COUP-TFII L364A/L365A double mutant (mouse) (UniProt P43135).
Data set [3] deals with the molecule itself. Kind of data set: crystal structure; ligand-free LBD, no cofactor peptide; hanging drops at 20 °C, well buffer 1.3 M or 1.5 M imidazole pH 5.6 and 1% Pluronic F68; space group C2, one LBD per asymmetric unit, symmetric dimer through crystal packing.
The target of data set [4] is T2, 6X His-GST-COUP-TFII LBD fusion protein (human, UniProt P24468 173-414, C174S).
T2 construct: The limits and C174S come from the protein preparation paragraph; also called receptor LBD; source: E. coli BL21 (DE3), purified as a 6X His-GST fusion protein; not shown: 6x Histidine, N-terminal, kept; GST, N-terminal, kept
T2 sequence (looked up): T1 sequence (P24468 173-414 C174S)
Briefly: AlphaScreen or HTRF; approximately 0.4 μM 6X His-GST receptor LBD and 0.1 μM biotinylated peptide, 20 μg/ml donor and acceptor beads; 50 mM MOPS, 50 mM NaF, 50 mM CHAPS, 0.1 mg/ml bovine serum albumin, pH 7.4; with 50 μM 9-cis-retinoic acid. As to conditions: both partners purified.

Where no end group is shown, it is not given here.

Consider `CC1=C(/C=C/C(C)=C\C=C\C(C)=C\C(=O)O)C(C)(C)CCC1` [9cRA, 9-cis-retinoic acid], for which the midpoint of the response at COUP-TFII, the EC50, lay at 17 µM.

For the molecule `CC1=C(/C=C/C(C)=C/C=C/C(C)=C/C(=O)O)C(C)(C)CCC1` [ATRA, all-trans-retinoic acid], at COUP-TFII, the EC50 was 26 µM.

With “SRC-3 (wild type) (from UniProt Q9Y6Q9 1-1424) (natural protein)”, in data set [1], the NGFI-A promoter luciferase reporter in COS-7 cells, COUP-TFII cotransfected with SRC-3, relative to COUP-TFII alone is more than 2 fold.

B1: COUP-TFII L364A/L365A double mutant (natural protein)
chain: MAMVVSTWRDPQDEVPGSQGSQASQAPPVPGPPPGAPHTPQTPGQGGPASTPAQTAAGGQGGPGGPGSDKQQQQQHIECVVCGDKSSGKHYGQFTCEGCKSFFKRSVRRNLSYTCRANRNCPIDQHHRNQCQYCRLKKCLKVGMRREAVQRGRMPPTQPTHGQFALTNGDPLNCHSYLSGYISLLLRAEPYPTSRFGSQCMQPNNIMGIENICELAARMLFSAVEWARNIPFFPDLQITDQVALLRLTWSELFVLNAAQCSMPLHVAPLLAAAGLHASPMSADRVVAFMDHIRIFQEQVEKLKALHVDSAEYSCLKAIVLFTSDACGLSDVAHVESLQEKSQCALEEYVRSQYPNQPTRFGKLAARLPSLRTVSSSVIEQLFFVRLVGKTPIETLIRDMLLSGSSFNWPYMAIQ
In data set [2], B1 gave an activation of the NGFI-A promoter luciferase reporter in COS-7 cells, relative to wild-type COUP-TFII of 20%.

B2: human COUP-TFII ligand-binding domain (residues 173–414, C174S), tag cleaved (domain or fragment, UniProt P24468 173-414, looked up)
chain: T1 sequence (P24468 173-414 C174S)
notes: Ligand-free; One LBD per asymmetric unit; The model lacks 13 residues between α1 and α3, 17 residues between α5 and α6, and the C-terminal seven residues; also called COUP-TFII LBD; apo-COUP-TFII; source: E. coli BL21 (DE3), purified (glutathione-sepharose, thrombin cleavage, Ni2+ chelating sepharose); not shown: 6x Histidine, N-terminal, cleaved; GST, N-terminal, cleaved
Consider B2, for which the binding result in data set [3] is given as “binds”.

B3: biotinylated SRC3–1 peptide (peptide)
peptide: AENQRGPLESKGHKKLLQLLTSS
modifications: also: biotinylated, position not given here
On to B3, for which the binding result in data set [4] is “binds”.

The EC50 is the midpoint of the concentration-response curve. Higher therefore signals a less potent agent.
